In publication PMC11981803:
pKd: −log10 of the molar value.

Tests used:
[1] = biological target: transmembrane domain of SaeS (SaeS TM), reconstituted into DMPC/DHPC bicelles (Staphylococcus aureus); assay: SPR
[2] = biological target: transmembrane domain of SaeS (SaeS TM), reconstituted into DMPC/DHPC bicelles (Staphylococcus aureus); assay: SDS-PAGE

transmembrane domain of SaeS (SaeS TM), reconstituted into DMPC/DHPC bicelles (Staphylococcus aureus), sequence (Q2FIT5 whole entry, the tested form may be a part): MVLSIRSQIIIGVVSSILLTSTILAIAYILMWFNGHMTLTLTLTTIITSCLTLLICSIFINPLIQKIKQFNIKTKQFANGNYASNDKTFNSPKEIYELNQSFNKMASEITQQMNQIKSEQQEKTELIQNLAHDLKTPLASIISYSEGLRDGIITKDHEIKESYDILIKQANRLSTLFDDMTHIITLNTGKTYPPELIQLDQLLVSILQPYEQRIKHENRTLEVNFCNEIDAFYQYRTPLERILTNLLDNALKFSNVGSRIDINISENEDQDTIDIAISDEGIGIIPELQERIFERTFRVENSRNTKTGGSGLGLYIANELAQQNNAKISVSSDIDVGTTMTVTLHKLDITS

Substance	pKd [1]	koff [1]	kon [1]	stoichiometry N [2]
Human neutrophil defensin-1 (from UniProt P59665 65-94) (peptide)	5.97	0.0186 s⁻¹	17400 M⁻¹ s⁻¹	–
transmembrane domain of SaeS (SaeS TM), reconstituted into DMPC/DHPC bicelles (domain or fragment)	–	–	–	2
